Molecular target: epidermal growth factor receptor (EGFR) on EGFR^hi A431 cells (Homo sapiens, A431 cells, UniProt P00533)
Assay: flow cytometry on cells

EC50 [nM] | Binder
76.9 | nanobody 5B1 (VHH) VHH: QVQLQESGGGLVQAGDSLRLSCAASGRTFSTYTMGWFRQAPGKEREFVAGIGYSDDNTYYTDSVKGRFTVSRGSAKNTVYLQMNSLKPEDTAVYYCAARVGDVVFTIADNYAYWGQGTQVTVSS
4.7 | nanobody 5B12 (VHH) VHH: QVQLQESGGGLVQTGDSLRLSCAASGGTLTSYNMGWFRQAPGKDREFVAGISWSGGTGTYYADSVKGRFTISTDNAKNTVYLQMDSLKPDDTAVYYCAVRRRAYSVYTRPGLYDYWGQGTQVTVSS

From doi:10.1101/2025.03.16.643542 (bioRxiv, 2025)
